Measured values from the supplement of paper PMC9170038.

test system: K4 kissing-loop RNA reporter; assay: apparent KD of K4 kissing-loop reporter; higher = weaker reporter binding; conditions: Eterna round: R107; input ligand: theophylline 20 uM
Method: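 RNA-MaP round R107: designed RNA switches with theophylline, tryptophan, arginine or FMN aptamers are transcribed on-chip within common flanks. They are titrated with a labelled K4 kissing-loop RNA reporter in RNA-MaP buffer (100 mM Tris pH 7.5, 80 mM KCl, 4 mM MgCl2), without ligand or with the indicated ligand. Median apparent KD per design.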
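Also: bound reporter read as fluorescence of individual clusters on recovered sequencing chips by microscopy, with normalized cluster intensities fitted with a binding model.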

Sequence | apparent KD of K4 kissing-loop reporter
GAUUCUGUUCGAAAGAACGGAAUCACGGAAGGAGCGAGAGAAAUCUCAGGUAGGUCGCCGAAUUUUUGAUAGUGAUGUUAUCAUU [Arginine A K4 2] | 408 nM
CAUAGGAAACUAUGUUUCUCUCUUACUGAAGGAGCGCGUGAAAACGCAGGUAGGUCGCAGAAUUUAAAAGAGAGUGAUGUUCUCA [Ex Arginine A K4 11] | 572 nM
UUAUAUUUUAUAUUUAGUAGAGCUCUCGCUCGAGGACCGGUACGGCCGCCACUCGAGUGAUGUUCGAGUGGGAGAGCUCUACAUU [AK3.3 EXC Tryptophan A] | 100 nM
CGUAAGGAUUGACGACUGCAGAGCAAAAUAAAGGAUAUCGCAGCGUCGAGAAGGUUAUCGUGCGCCAGUGAUGUUGGCGGUAGUC [theeternabot_sameState_KL_FMN_A_22] | 181 nM
UCCUGCAAUCGGCCACGAAAGUGGAUGGAUACCAGAGUCGAAAGACUCCCUUGGCAGCCAGUGAUGUUGGAAGCAGGUAAAUAAA | 538 nM
CUAUGGAAACAUAGGAAUCGGGAAACCGAUACCAGUAUGGAAACAUACCCUUGGCAGCGGAAUGAUUCAACGGAGUGAUGUUCCG [Theophylline A K4 20] | 293 nM
ACGUAGCAGGCGGCCGCCACUCCGCAUAUGGAUCUCGAGUGAUGUUUGAGGGUGCCCAUCACAGCGAGGACCGGGCCAAUUAAGC [theeternabot_sameState_KL_Trp_B_10] | 179 nM
GUUACGCAUGGAAGGAGCGCUCUCAUGCUUAAUAACACAGUGAUGUUGUGAAUUUGCAUAAAGCAGGUAGGUCGCCAUGUGUAAC [Ex Arginine B K4 8] | 291 nM

same assay, conditions: Eterna round: R107; input ligand: tryptophan 2.4 mM

Sequence | apparent KD of K4 kissing-loop reporter
ACGUAUAUCAGAGGAUAUCGUAUUAAUAUUUUAUCUAUAUAUUAUAGCAGUGAUGUUGCAAUUAUUCGAGAAGGCUGAUUUACGA [JR_SSFMNB_Sub023] | 100 nM
GUAACCUUGCUCGAGUGAUGUUCGAGCGAAGGAGCGCGAGAAAUCGCAGGUAGGUCGCGCUCGAAAUUUGAGCGAACAAUUAUUA [Arg A Ex t2] | 113 nM
GGCAUAUGAAAUCGCCUAGAGAGAAAGGAUACCAGCACCCGGCGGUGCCCUUGGCAGCCUAGCCCAGUGAUGUUGGGUCCUCUAA [Rasoonanxe] | 144 nM
CGCCGCAAGGCGAGCGCUCCCACUCCGGAAGGAGCGCCCGAAAGGGCAGGUAGGUCGCCGGAGUGAUGUUCCGGUGGAGGGCUCG [#2 Exclusion - Arginine A Attempt #27 (Inspired by Omei)] | 529 nM
UUUAUUAAGACGGCCGCCACUGAUUCAUAGUGAUGUUAUGAUAUAAUUUUAGUGAUUUUGAUUAGCAGGACCGGGUCAAUUAUUA [JR_ExcTryptoB_Sub016] | 172 nM
GCAGACACGCAGUGAUGUUGCGAAACGGAAGGAGCGCGUGAAAACGCAGGUAGGUCGCCGAAACAUAAAUUAUAAUUUUGUUUGC [Arginine A K4 13] | 177 nM
AAGUCAUAUAGAAGGAGCGUGUUUUUUAAUUUGUUUUCAUGAUCGAGUGAUGUUCGAUAUACACAGGUAGGUCGCUGUAUGAUAA [hbob_SS_Arginine_B_2t143] | 114 nM
UUUGGUUUCUCGGCCGCCACUCGUUGUCUAUCGGCUUCAGGGAUAUAGUGAUGUUAUGUAUAGAAGAGGACCGGGAGAAGGUUCU [ExTryptoB.Dx] | 182 nM
CCGAAGAACCAGUGAUGUUGGUUGACUAGACAGGAUAUGAGCAACAUCAGAAGGGUCUGGCUUCGGGAGUGGGCCGCGCUGACCU [Artilati] | 395 nM
CCGGGCGGCUGAAGGAGCGGGCGGGCCCGAGUGAUGUUCGGGUGGGCCGUGAGGUCCGGUGCCCAGGUAGGUCGCGGUUCCGCCC [#2 Same State - Arginine B Attempt #10 (HarryS)] | 164 nM
GCUAUGGUAGGAAGGAGCGCUGCGUUGUUUUUACGAGUGAUGUUCGGAAGCGGCGUGUUAAAGCAGGUAGGUCGCCUACUAUAGC [Arginine B K4 24] | 154 nM
AGUGAUGUGGGAAGGAGCGCUACAAGACUUCAGUGAUGUUGAAGUGAUGAUUUAGUGUUGUAGCAGGUAGGUCGCCUAGAUGUUA [KL-XARG-B9] | 39.1 nM
UGCUUAGUGAUGUUUGAUUUGGUGCAUGCAGAGGAUAUAGGGUGCUUUAGAAGGCUGAGGAGUGCGCCGAGUGAUGUUCGGCGCU [Exclusion FMN A GF11] | 170 nM
AAAUUGUUUAGAGGAUAUUCUUUAUUCGACAUAACCUUCUAUAAGGUGCAGUGAUGUUGCAAUAUAGGAGAAGGUUGAGUGAUAA [Exclusion FMN B Gf 15] | 113 nM
AAUAUCUAGUAUAUAUUUUAUAAAACAGAUACCAGUGAUUAUAUACACCCUUGGCAGCUGGACGAGUGAUGUUCGUAUAUAUUAA [JR_SSTheophyA_Sub008] | 89 nM
UACAUAUAGUUAUUUCUACAUUUAUUUAGUCAGGAUAUCGAUUAGACGAGAAGGGACAAUAUCAAGUGAUGUUUGAUAAUUCAAA [JR_ExcFMNA_Sub011] | 53.2 nM

Sequence | apparent KD of K4 kissing-loop reporter
CUCGAGUGAUGUUCGAUUAUUUAUACAGAUACCAGUGAAUUUUAACACCCUUGGCAGCUGGUAGUAUCUUUGUAAUUUUAACUAG [JR_ExcTheophyA_Sub003] | 111 nM
ACCUACGAUCACGAAAGUGAUUGUAGGAUCUAGGAUAUGCUGAAGAGCAGAAGGAGAGUGAUGUUCUCAUCUCACGAAAGUGAGA [whbob_Ex_FMNA__2th190] | 221 nM
UUUCGUUUCGUCUGACAUAAUUGGCUAGAAGGAGCGGUAAAAUUACCAGGUAGGUCGCUAGCCCAGUGAUGUUGGGACUAGCAUA [Onqudi] | 171 nM
CGCCGGAAGGCGAGCGCUCCCACUCCGGAAGGAGCGCCCGAAAGGGCAGGUAGGUCGCCGGAGUGAUGUUCCGGUGGAGGGCUCG [#2 Exclusion - Arginine A Attempt #29 (Inspired by Omei)] | 187 nM
GUUACGCAUGGAAGGAGCGCACUCCGAUUGAUCGACACAGUGAUGUUGUGGUUCGUUCGAAUGCAGGUAGGUCGCCAUGUGUAAC [Ex Arginine B K4 17] | 233 nM
CUAGCUAGCAUGGAAACAUGCUAGCUAGAUUAGGAUAUGACGUAAGUCAGAAGGGAUAAAUGGAGUGAUGUUCCGGACGCAAGUC [#2 Same State - FMN A Attempt #4 (HarryS)] | 186 nM
UAAAACGCUUGAAUAACAAGCGAAAAUUCGCGAGGACCGGUACGGCCGCCACUCGCUAACUGCGAGUGAUGUUCGAUAAUAAAAU [Mat - Mod of OpenEnded 3 - D4] | 95.5 nM
GUGAAGGAGAUGCAGUGAUGUUGCAGAGACUAGGAUAUCAGGAAACUGAGAAGGAGUCAAUUCCUUCAUUUAGACUGCAACAUAA [KL-SSFMN-A12] | 191 nM
GAUUCUGUUCGAAAGAACGGAAUCACGGAAGGAGCGAGAGAAAUCUCAGGUAGGUCGCCGAAUUUUUGAUAGUGAUGUUAUCAUU [Arginine A K4 2] | 426 nM
CAUAGGAAACUAUGUUUCUCUCUUACUGAAGGAGCGCGUGAAAACGCAGGUAGGUCGCAGAAUUUAAAAGAGAGUGAUGUUCUCA [Ex Arginine A K4 11] | 446 nM
UUAUAUUUUAUAUUUAGUAGAGCUCUCGCUCGAGGACCGGUACGGCCGCCACUCGAGUGAUGUUCGAGUGGGAGAGCUCUACAUU [AK3.3 EXC Tryptophan A] | 181 nM
CGUAAGGAUUGACGACUGCAGAGCAAAAUAAAGGAUAUCGCAGCGUCGAGAAGGUUAUCGUGCGCCAGUGAUGUUGGCGGUAGUC [theeternabot_sameState_KL_FMN_A_22] | 87 nM
UCCUGCAAUCGGCCACGAAAGUGGAUGGAUACCAGAGUCGAAAGACUCCCUUGGCAGCCAGUGAUGUUGGAAGCAGGUAAAUAAA | 505 nM
CUAUGGAAACAUAGGAAUCGGGAAACCGAUACCAGUAUGGAAACAUACCCUUGGCAGCGGAAUGAUUCAACGGAGUGAUGUUCCG [Theophylline A K4 20] | 321 nM
ACGUAGCAGGCGGCCGCCACUCCGCAUAUGGAUCUCGAGUGAUGUUUGAGGGUGCCCAUCACAGCGAGGACCGGGCCAAUUAAGC [theeternabot_sameState_KL_Trp_B_10] | 254 nM
GUUACGCAUGGAAGGAGCGCUCUCAUGCUUAAUAACACAGUGAUGUUGUGAAUUUGCAUAAAGCAGGUAGGUCGCCAUGUGUAAC [Ex Arginine B K4 8] | 332 nM
